These results are taken from patent publication US20240084044A1, “Heteromultivalent Nucleic Acid Scaffolds and Uses Thereof” (George Mason University, priority 2022, published 2024).

Test [1] addresses ST2/IL-33 binary complex (recombinant FLAG-tagged ST2 extracellular domain with recombinant mature IL-33) (UniProt Q01638). Briefly: SPR (OpenSPR), FLAG-ST2 captured on anti-FLAG mAb and loaded with 50 nM IL-33, IL1RAcP as analyte, 1:1 fit; native IL-1RAcP as analyte.
A further test has as its target T1, ST2/IL-33 binary complex (Homo sapiens, UniProt O95760+Q01638).
T1 construct: included the extracellular domains, K19-F328 and S21-E359, respectively; the cleaved mature proteins, S112-T270, A117-S269, and R2-S310, respectively; purchased Sino Biologicals ST2 10105-HCCH; IL-33 10368-HNAE; host or cells: ST2: HEK293; IL-33: E. coli
T1 sequence (Q01638 19-328 isoform Q01638-2): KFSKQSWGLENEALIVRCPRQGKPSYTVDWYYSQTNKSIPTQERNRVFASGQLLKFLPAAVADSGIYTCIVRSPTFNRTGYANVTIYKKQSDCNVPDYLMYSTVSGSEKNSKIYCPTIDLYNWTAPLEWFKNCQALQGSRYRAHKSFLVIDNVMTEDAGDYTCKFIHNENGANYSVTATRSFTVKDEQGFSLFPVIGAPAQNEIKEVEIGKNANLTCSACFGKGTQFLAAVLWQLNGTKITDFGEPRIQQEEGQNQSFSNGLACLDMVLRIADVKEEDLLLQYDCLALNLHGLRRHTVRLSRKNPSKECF
T1 sequence (O95760 112-270): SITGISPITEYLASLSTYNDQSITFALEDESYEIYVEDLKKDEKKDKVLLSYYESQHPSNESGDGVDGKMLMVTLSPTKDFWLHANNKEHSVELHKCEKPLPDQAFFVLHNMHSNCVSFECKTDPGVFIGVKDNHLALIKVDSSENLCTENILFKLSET
Briefly: SPR dissociation constant for the ST2/IL-33 binary complex. Format: binding. The following applies: SPR, 1:1 fit; read-out: KD to the binary ST2/IL-33 complex. From the text: Recombinant ST2 with truncated FLAG (DDDDK) tag (Cat. #10105-HCCH), His-tagged IL1RAcP (Cat. #10121-H08H), IL-33 (Cat. #10368-HNAE), IL-1β (Cat. #10139-HNAE), and FLAG-tagged SIRT5 (Cat. #19202-H22E) were purchased from Sino Biologicals (Wayne, PA). ST2 and IL1RAcP were expressed in HEK293 cells and included the extracellular domains, K19-F328 and S21-E359, respectively. IL-33, IL-1β, and SIRT5 were expressed in E. coli and included the residue sequence of the cleaved mature proteins, S112-T270, A117-S269, and R2-S310, respectively. Lyophilized ST2, and IL1RAcP were reconstituted in ultrapure (18.5 MΩ) water to a concentration of 0.5 mg/mL (5.6 μM) and stored at −80° C. until use. SIRT5 was reconstituted to 0.2 mg/mL (2.87 μM). To prevent oxidation, IL-33 was reconstituted in 10 mM β-mercaptoethanol (Sigma-Aldrich) to a concentration of 0.1 mg/mL and IL-1β was reconstituted to 0.250 mg/mL. All peptides were purchased from Peptide 2.0 (Chantilly, VA) and designed based on IL1RAcP hotspot residues known to interact with IL-33/ST2 and surrounding residues based on the canonical sequence of IL1RAcP (Uniprot #Q9NPH3). All peptides were modified with acetylated N-terms and amidated C-terms to optimize stability and cyclic peptides cyclized via thioether or disulfide bond. Candidate peptides for the final molecule were also modified with an azido-Lysine and additional N-term alanine or cysteine, to provide the azide group for copper free click chemistry and maintain cyclization. Peptides were stored at −20° C. in lyophilized aliquots of 100 μg or 200 μg and −80° C. after reconstitution in sterile DMSO to a concentration of 10 mM.
SPR experiments were carried out on an OpenSPR instrument (Nicoya). Gold nanoparticle sensor chips (Nicoya) were functionalized by incubation in a solution of ethanol and 10 mM 11-Mercaptoundecanoic acid (MUDA) at RT for a minimum of 48 h, then stored in ethanol at 4° C. until use. Chips were activated with a solution of 200 mM EDC and 50 mM NHS for 3 m at RT. […] Data was analyzed with TraceDrawer software to a 1:1 fit model.

In test [2] the target is ST2/IL-33 binary complex (recombinant FLAG-tagged ST2 extracellular domain with recombinant mature IL-33) (UniProt Q01638). Nature of the test: SPR (OpenSPR): FLAG-ST2 captured on anti-FLAG mAb and loaded with IL-33, peptide as analyte, 1:1 fit; five sensorgrams, the highest to about 350 RU.
For test [3] the target is unchanged. Briefly: SPR (OpenSPR): FLAG-ST2 captured on anti-FLAG mAb and loaded with IL-33, peptide as analyte, 1:1 fit; five sensorgrams, the highest to about 390 RU.
For test [4] the target is unchanged. Briefly: SPR (OpenSPR): FLAG-ST2 captured on anti-FLAG mAb and loaded with IL-33, peptide as analyte, 1:1 fit; five sensorgrams, the highest to about 300 RU.
The target is the same in test [5]. Nature of the test: SPR (OpenSPR), KD compared.
The target of test [6] is T2, IL-33/ST2 on HEK-Blue IL-33 reporter cells (recombinant IL-33 with ST2 stably expressed on the cells), Q01638.
T2 chain 1: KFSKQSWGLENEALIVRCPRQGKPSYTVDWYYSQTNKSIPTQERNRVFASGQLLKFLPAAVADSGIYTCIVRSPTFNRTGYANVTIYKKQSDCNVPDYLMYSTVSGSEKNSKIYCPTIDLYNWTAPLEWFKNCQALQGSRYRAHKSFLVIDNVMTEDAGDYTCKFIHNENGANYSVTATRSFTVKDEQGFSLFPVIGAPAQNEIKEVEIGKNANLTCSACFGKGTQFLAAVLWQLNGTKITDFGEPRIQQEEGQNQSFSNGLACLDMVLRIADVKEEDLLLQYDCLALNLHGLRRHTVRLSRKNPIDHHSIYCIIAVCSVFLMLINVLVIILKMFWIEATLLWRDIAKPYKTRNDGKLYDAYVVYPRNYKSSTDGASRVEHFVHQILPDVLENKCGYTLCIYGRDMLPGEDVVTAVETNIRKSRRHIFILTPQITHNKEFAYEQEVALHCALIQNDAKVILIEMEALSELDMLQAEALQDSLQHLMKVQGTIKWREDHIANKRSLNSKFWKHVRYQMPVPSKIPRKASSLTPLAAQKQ
T2 chain 2: T1 sequence (O95760 112-270)
Nature of the test: cell-based or functional assay.

The target in test [7] is ST2/IL-33 binary complex (recombinant FLAG-tagged ST2 extracellular domain with recombinant mature IL-33) (UniProt Q01638). Nature of the test: DSS cross-linking and western blot, 1 µM MSTOP, competitor IL-1RAcP. Background: A western blot detects proteins with antibodies after separation by electrophoresis.
For test [8] the target is unchanged. Nature of the test: DSS cross-linking and western blot, 100 nM MSTOP compared with 10 µM free WT peptides, competitor IL-1RAcP.
Test [9] shares this target. Nature of the test: DSS cross-linking and western blot, 10 µM MSTOP, competitor IL-1RAcP, normalised to the untreated trimer control.
Test [10] has the same target. Nature of the test: SPR (OpenSPR), FLAG-ST2 captured on anti-FLAG mAb and loaded with IL-33, MSTOP as analyte, 1:1 fit; MSTOP as analyte.
Test [11] has the same target. Nature of the test: SPR (OpenSPR): FLAG-ST2 captured on anti-FLAG mAb and loaded with IL-33, MSTOP as analyte, 1:1 fit; sensorgrams to about 620 RU. The text gives 195 nM.

Bridges are numbered along the chain shown (N, C = ends). Roman numbers before positions name the chains, in order. [ ]: non-standard residue; d: D form. Lys(N3) = [N-]=[N+]=NCCCC[C@H](N)C(=O)O

On to “His-tagged IL1RAcP extracellular domain (S21-E359) (from UniProt Q9NPH3 21-359) (receptor)”, for which the Kd in test [1] came to 10 µM.
Take “IL-1RAcP: recombinant His-tagged IL-1 receptor accessory protein extracellular domain S21-E359”: in the test with ST2/IL-33 binary complex, the Kd was found to be 10 µM.

B1: K238 Ac-A-K(N3)-…-NH2 (S) (peptide)
peptide: Ac-A[Lys(N3)]VGSPKNAVPPC-NH2
modifications: thioether 1-13
SMILES: CC(=O)N[C@H]1CSC[C@@H](C(N)=O)NC(=O)[C@@H]2CCCN2C(=O)[C@@H]2CCCN2C(=O)[C@H](C(C)C)NC(=O)[C@H](C)NC(=O)[C@H](CC(N)=O)NC(=O)[C@H](CCCCN)NC(=O)[C@@H]2CCCN2C(=O)[C@H](CO)NC(=O)CNC(=O)[C@H](C(C)C)NC(=O)[C@H](CCCCN=[N+]=[N-])NC1=O
Regarding B1, the Kd in test [2] is 105 µM.

B2: K343/K346 Ac-C-K(N3)-…-NH2 (S-S) (peptide)
peptide: Ac-C[Lys(N3)]GEVAKAAKVKC-NH2
modifications: disulfide 1-13
SMILES: CC(=O)N[C@H]1CSSC[C@@H](C(N)=O)NC(=O)[C@H](CCCCN)NC(=O)[C@H](C(C)C)NC(=O)[C@H](CCCCN)NC(=O)[C@H](C)NC(=O)[C@H](C)NC(=O)[C@H](CCCCN)NC(=O)[C@H](C)NC(=O)[C@H](C(C)C)NC(=O)[C@H](CCC(=O)O)NC(=O)CNC(=O)[C@H](CCCCN=[N+]=[N-])NC1=O
On to B2, for which the Kd in test [3] was determined as 47 µM.

B3: R157 Ac-C-K(N3)-…-NH2 (S-S) (peptide)
peptide: Ac-C[Lys(N3)]EYGIQRITC-NH2
modifications: disulfide 1-11
SMILES: CC[C@H](C)[C@@H]1NC(=O)CNC(=O)[C@H](Cc2ccc(O)cc2)NC(=O)[C@H](CCC(=O)O)NC(=O)[C@H](CCCCN=[N+]=[N-])NC(=O)[C@@H](NC(C)=O)CSSC[C@@H](C(N)=O)NC(=O)[C@H]([C@@H](C)O)NC(=O)[C@H]([C@@H](C)CC)NC(=O)[C@H](CCCNC(=N)N)NC(=O)[C@H](CCC(N)=O)NC1=O
As for B3, the Kd in test [4] is 57 µM.

B4: MSTOP prototype (Multivalent Specific Topology-targeting DNA-Origami Peptide Inhibitor): 3-way junction DNA scaffold carrying three cyclized azidolysine … (designed binder)
peptide 1: Ac-CKEYGIQRITC-NH2
peptide 2: Ac-AKVGSPKNAVPPC-NH2
peptide 3: Ac-CKGEVAKAAKVKC-NH2
modifications: disulfide I:1-I:11, III:1-III:13; thioether II:1-II:13; not fully specified (some residues); also: three peptides held on a 3-way junction DNA scaffold via DBCO staple strands
Regarding B4, the fold increase in affinity compared to the individual peptides and IL-1RAcP in test [5] stood at 100 fold. Moreover, the IL-33 induced SEAP expression (HEK-Blue IL-33 reporter cells, 1 µM MSTOP) in test [6] turned out to be 40 % reduction. Further, the reduction of trimer formation in test [7] is 40%. Further, the fold increase in efficiency against the 10 µM WT peptide treatment in test [8] came to 100 fold. Also, the reduction in trimer formation in test [9] came out at 70%. For the same molecule, the Kd in test [10] came out at 0.195 µM; in test [11], 0.127 µM.
